Experimental findings from PMC3945637 (Frontiers in Pharmacology, 2014) are described below.

Where only a bound is given, the exact number is not on record here.

The target in assay [1] is rabbit B2R-green fluorescent protein (rabbit) (UniProt Q28642). As to the kind of experiment: radioligand binding; competition of 3 nM [^3H]BK binding to adherent intact HEK 293 cells stably expressing rabbit B2R-GFP by unlabeled peptides; 0 °C; peptidase inhibitors that included captopril; one-site competition fit.
The target of assay [2] is endogenous B2 receptor of the human umbilical vein (human (endogenous in umbilical vein)) (UniProt P30411).
The target of assay [3] is human recombinant ACE (Homo sapiens, UniProt P12821). As to the kind of experiment: radioligand binding; competition of 2 nM [^3H]enalaprilat binding to HEK 293a cells transiently expressing human recombinant ACE by BK and analogs; one-site competition fit.
For assay [4], the target named is human B1R (B1R-FLAG vector) (human) (UniProt P46663). As to the kind of experiment: radioligand binding; competition of 1 nM [^3H]Lys-des-Arg^9-BK binding to HEK 293a cells transiently expressing human B1R (B1R-FLAG vector); one-site competition fit.

Sequence of human recombinant ACE (P12821 30-1306): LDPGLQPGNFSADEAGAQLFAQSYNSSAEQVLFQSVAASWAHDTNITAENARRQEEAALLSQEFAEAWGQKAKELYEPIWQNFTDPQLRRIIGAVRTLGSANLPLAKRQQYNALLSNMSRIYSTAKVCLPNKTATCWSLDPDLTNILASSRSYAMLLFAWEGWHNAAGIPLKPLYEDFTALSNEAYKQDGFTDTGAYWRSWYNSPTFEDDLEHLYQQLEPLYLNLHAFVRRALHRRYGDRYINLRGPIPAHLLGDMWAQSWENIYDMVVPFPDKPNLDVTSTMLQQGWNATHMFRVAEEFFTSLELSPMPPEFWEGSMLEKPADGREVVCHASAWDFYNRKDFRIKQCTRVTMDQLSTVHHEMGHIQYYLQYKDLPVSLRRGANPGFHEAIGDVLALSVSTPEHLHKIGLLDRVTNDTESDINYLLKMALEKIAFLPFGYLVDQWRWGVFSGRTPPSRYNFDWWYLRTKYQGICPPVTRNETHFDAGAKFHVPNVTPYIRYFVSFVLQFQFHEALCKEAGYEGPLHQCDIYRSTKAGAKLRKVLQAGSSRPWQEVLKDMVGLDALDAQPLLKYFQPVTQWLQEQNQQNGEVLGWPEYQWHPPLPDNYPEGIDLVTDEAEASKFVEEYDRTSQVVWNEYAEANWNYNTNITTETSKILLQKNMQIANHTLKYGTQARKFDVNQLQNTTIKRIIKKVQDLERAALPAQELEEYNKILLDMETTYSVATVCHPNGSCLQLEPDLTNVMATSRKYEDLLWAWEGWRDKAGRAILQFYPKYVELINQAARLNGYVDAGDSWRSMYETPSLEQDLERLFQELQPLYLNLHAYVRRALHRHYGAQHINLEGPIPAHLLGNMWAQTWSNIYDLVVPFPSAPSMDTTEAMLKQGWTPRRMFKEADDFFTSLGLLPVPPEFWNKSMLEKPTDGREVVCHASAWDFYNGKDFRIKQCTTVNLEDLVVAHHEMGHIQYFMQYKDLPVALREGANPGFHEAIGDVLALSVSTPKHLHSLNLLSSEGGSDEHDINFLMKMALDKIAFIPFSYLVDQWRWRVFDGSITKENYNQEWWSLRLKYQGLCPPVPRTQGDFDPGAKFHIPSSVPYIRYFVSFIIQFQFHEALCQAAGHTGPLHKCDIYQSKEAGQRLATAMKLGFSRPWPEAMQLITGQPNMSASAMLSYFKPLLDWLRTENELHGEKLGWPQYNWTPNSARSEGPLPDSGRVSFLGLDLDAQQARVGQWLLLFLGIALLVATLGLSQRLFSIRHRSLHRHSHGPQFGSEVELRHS

For the substance BK-His-Leu (peptide), the results for the log(IC50) in assay [1], in assay [3] and in assay [4] were -5.24 log M, -5.28 log M and over -5 log M, respectively. The substance also displayed a log(EC50) of contraction of the human isolated umbilical vein, with ACE blocked by enalaprilat 1 μM, Figure 3C in assay [2] of -5.34 log M.

On to BK-Ser-Tyr (peptide), for which the values for the log(IC50) in assay [1], in assay [3] and in assay [4] were -5.79 log M, -5.21 log M and over -5 log M, respectively. In assay [2], this substance showed a log(EC50) of contraction of the human isolated umbilical vein, with ACE blocked by enalaprilat 1 μM, Figure 3B of -6.32 log M.

For the substance BK-Ala-Pro (peptide), the log(IC50) in assay [1] is -5.11 log M; in assay [3] it was -5.46 log M; in assay [4], over -5 log M. This substance displayed a log(EC50) of contraction of the human isolated umbilical vein, with ACE blocked by enalaprilat 1 μM, Figure 3D in assay [2] of -5.55 log M.
